Assays:
Experiment in all cases: ELISA
[1] = target: 4A01v1
[2] = target: 4A01v3-7
[3] = target: 4A01v3-8
[4] = target: 4A01v3-3
[5] = target: 4A01v3-4
[6] = target: 4A01v9
[7] = target: 4A01v3
[8] = target: 4A01v3-1
[9] = target: 4A01v3-5
[10] = target: 4A01v5
[11] = target: 4A01v4
[12] = target: 4A01v6
[13] = target: 4A01v8

Kd [1]: 0.184 nM
Kd [2]: 0.123 nM
Kd [3]: 0.169 nM
Kd [4]: 0.152 nM
Kd [5]: 0.252 nM
Kd [6]: 0.144 nM
Kd [7]: 0.162 nM
Kd [8]: 0.13 nM
Kd [9]: 0.162 nM
Kd [10]: 0.26 nM
Kd [11]: 0.32 nM
Kd [12]: 0.273 nM
Kd [13]: 0.328 nM
B1: rat (other)
chain: EAHKSEIAHRFKDLGEQHFKGLVLIAFSQYLQKCPYEEHIKLVQEVTDFAKTCVADENAENCDKSIHTLFGDKLCAIPKLRDNYGELADCCAKQEPERNECFLQHKDDNPNLPPFQRPEAEAMCTSFQENPTSFLGHYLHEVARRHPYFYAPELLYYAEKYNEVLTQCCTESDKAACLTPKLDAVKEKALVAAVRQRMKCSSMQRFGERAFKAWAVARMSQRFPNAEFAEITKLATDVTKINKECCHGDLLECADDRAELAKYMCENQATISSKLQACCDKPVLQKSQCLAEIEHDNIPADLPSIAADFVEDKEVCKNYAEAKDVFLGTFLYEYSRRHPDYSVSLLLRLAKKYEATLEKCCAEGDPPACYGTVLAEFQPLVEEPKNLVKTNCELYEKLGEYGFQNAVLVRYTQKAPQVSTPTLVEAARNLGRVGTKCCTLPEAQRLPCVEDYLSAILNRLCVLHEKTPVSEKVTKCCSGSLVERRPCFSALTVDETYVPKEFKAETFTFHSDICTLPDKEKQIKKQTALAELVKHKPKATEDQLKTVMGDFAQFVDKCCKAADKDNCFATEGPNLVARSKEALA

Source: patent US20250277018A1 (published 2025)
